{
  "source": "patent US20010029022A1",
  "about": "(PHARMACIA AND UPJOHN, published 2001)",
  "binders": {"B1": {"name": "GST-HPV31 E7 (other)", "chain": "MRGETPTLQDYVLDLQPEATDLHCYEQLPDSSDEEDVIDSPAGQAEPDTSNYNIVTFCCQCKSTLRLCVQSTQVDIRILQELLMGSFGIVCPNCSTRL", "notes": "GST fusion from pGEX-4T-3; also called GST-31E7; not shown: glutathione-S-transferase (GST) moiety of vector pGEX-4T-3, at the amino-terminus"}, "B2": {"name": "His-p21C (other)", "chain": "GLPKLYLPTGPRRGRDELGGGRRPGTSPALLQGTAEEDHVDLSLSCTLVPRSGEQAEGSPGGPGDSQGRKRRQTSMTDFYHSKRRLIFSKRKP", "notes": "range 72-164; also called carboxy terminal residues 72-164 of p21; not shown: poly-histidine tag from vector pET15b"}, "B3": {"name": "GST-HPV16 E7 (other)", "chain": "MHGDTPTLHEYMLDLQPETTDLYCYEQLNDSSEEEDEIDGPAGQAEPDRAHYNIVTFCCKCDSTLRLCVQSTHVDIRTLEDLLMGTLGIVCPICSQKP", "notes": "range 1-98; GST fusion from pGEX-4T-3; also called GST-16E7; full length GST-HPV 16 E7; not shown: glutathione-S-transferase (GST) moiety of vector pGEX-4T-3, at the amino-terminus"}},
  "key": {"[1]": {"target": "CDK2 kinase complex (cyclin not given) (UniProt P24941 1-298)", "assay": "cell-based or functional assay"}, "His-p27C": {"target": "T1, His-p27C (human, UniProt P46527 95-198)", "T1 construct": "range 95-198; also called carboxy terminal residues 95-198 of p27; not shown: poly-histidine tag from the expression vector", "T1 sequence (P46527 95-198)": "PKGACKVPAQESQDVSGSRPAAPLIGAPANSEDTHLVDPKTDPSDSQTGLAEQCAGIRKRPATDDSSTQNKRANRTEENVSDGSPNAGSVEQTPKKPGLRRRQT", "assay": "GST pull-down on glutathione-agarose beads, SDS-PAGE, Coomassie blue and Western blot"}, "His-p27N": {"target": "T2, His-p27N (human, UniProt P46527 1-101)", "T2 construct": "range 1-101; also called amino terminal residues 1-101 from p27; not shown: poly-histidine tag from the expression vector", "T2 sequence (P46527 1-101)": "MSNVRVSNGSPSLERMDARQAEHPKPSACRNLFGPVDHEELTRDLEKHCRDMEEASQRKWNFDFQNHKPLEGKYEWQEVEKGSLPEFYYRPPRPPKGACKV", "assay": "GST pull-down on glutathione-agarose beads, SDS-PAGE, Coomassie blue and Western blot"}, "GST-HPV16 E7": {"target": "B3", "assay": "GST pull-down on glutathione-agarose beads, SDS-PAGE, Coomassie blue and Western blot"}, "GST-HPV31 E7": {"target": "B1", "assay": "GST pull-down on glutathione-agarose beads, SDS-PAGE, Coomassie blue and Western blot"}, "cyclin A/CDK2 complex": {"target": "cyclin A/CDK2 complex (UniProt P20248 1-432; P24941 1-298)", "sequence (P20248 whole entry, one chain of several)": "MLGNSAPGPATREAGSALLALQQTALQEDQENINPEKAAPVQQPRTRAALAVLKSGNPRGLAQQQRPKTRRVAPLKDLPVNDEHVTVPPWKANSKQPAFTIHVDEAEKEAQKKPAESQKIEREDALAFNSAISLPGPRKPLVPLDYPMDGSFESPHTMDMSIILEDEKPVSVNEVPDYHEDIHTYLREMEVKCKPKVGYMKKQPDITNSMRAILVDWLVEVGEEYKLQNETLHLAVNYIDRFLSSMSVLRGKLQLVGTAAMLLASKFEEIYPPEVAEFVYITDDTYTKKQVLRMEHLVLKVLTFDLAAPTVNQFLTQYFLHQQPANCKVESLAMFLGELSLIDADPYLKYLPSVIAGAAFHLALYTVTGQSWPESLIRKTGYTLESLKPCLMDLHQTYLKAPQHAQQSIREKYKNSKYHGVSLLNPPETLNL", "assay": "cell-based or functional assay"}},
  "data": [
    {"binder": "B1", "values": [
      {"measurement": "CDK2 histone kinase activity, fold activation", "setting": "[1]", "value": 12.6, "unit": "fold"},
      {"measurement": "binding result", "setting": "His-p27C", "value": "no binding"},
      {"measurement": "binding result", "setting": "His-p27N", "value": "no binding"}
    ]},
    {"binder": "B2", "values": [
      {"measurement": "binding result", "setting": "GST-HPV16 E7", "value": "no binding"},
      {"measurement": "binding result", "setting": "GST-HPV31 E7", "value": "no binding"}
    ]},
    {"binder": "B3", "values": [
      {"measurement": "CDK2 histone kinase activity, fold activation", "setting": "[1]", "value": 18.2, "unit": "fold"},
      {"measurement": "cyclinA/CDK2 histone H1 kinase activity (PhosphorImager)", "setting": "cyclin A/CDK2 complex", "value": 26, "unit": "fold"},
      {"measurement": "binding result", "setting": "His-p27C", "value": "no binding"},
      {"measurement": "binding result", "setting": "His-p27N", "value": "no binding"}
    ]}
  ]
}
